For 1 substance, stoichiometry N results are on record in article PMC5969528.

Where two headings read alike, the source gives them in different places.

The target of experiment [1] is cytoplasmic dynein-1 heavy chain (mouse (endogenous in mouse brain)) (UniProt Q9JHU4). Briefly: cryo-EM structure.
Experiment [2] shares this target. The experiment in a line: cryo-EM structure. This is another data set of the same source.

As a reminder, the stoichiometry N is the number of molecules, sites or subunits per partner or assembly. Take “cytoplasmic dynein-1 heavy chain, Q9JHU4 1-4644”: the stoichiometry N in experiment [1] and in experiment [2] was 2 each time.
